Values of other authors as cited in publication PMC9980337.
Several values for one entry are separate records, joined by “and”; a condition that tells them apart may be missing. Equal entries are not always repeated.

Biological target: IL-18 (Homo sapiens) (UniProt Q14116)
Sequence (Q14116 37-193): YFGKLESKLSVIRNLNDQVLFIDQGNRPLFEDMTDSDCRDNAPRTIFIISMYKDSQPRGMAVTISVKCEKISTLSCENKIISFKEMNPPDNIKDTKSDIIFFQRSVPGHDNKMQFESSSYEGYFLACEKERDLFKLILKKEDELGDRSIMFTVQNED

Sequence of IL-18BP (O95998 31-194): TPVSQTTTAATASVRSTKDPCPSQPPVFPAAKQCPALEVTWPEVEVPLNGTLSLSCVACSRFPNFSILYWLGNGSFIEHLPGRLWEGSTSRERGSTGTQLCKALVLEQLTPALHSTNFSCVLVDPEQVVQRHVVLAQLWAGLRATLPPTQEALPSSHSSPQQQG

Substance: IL-18BP (from UniProt O95998)
- Kd: 0.4 nM and 0.05 nM
